Results reported in patent US20070244048A1 (published 2007).
*: point of attachment. Succinimide(1-Et,3-yl) = CCN1C(=O)CC(*)C1=O

What was measured:
rat NMUR1-ATG = molecular target: T1, rat NMUR1-ATG (rat, UniProt Q9JJI5 1-425); experiment: cell-based or functional assay
T1 sequence (looked up): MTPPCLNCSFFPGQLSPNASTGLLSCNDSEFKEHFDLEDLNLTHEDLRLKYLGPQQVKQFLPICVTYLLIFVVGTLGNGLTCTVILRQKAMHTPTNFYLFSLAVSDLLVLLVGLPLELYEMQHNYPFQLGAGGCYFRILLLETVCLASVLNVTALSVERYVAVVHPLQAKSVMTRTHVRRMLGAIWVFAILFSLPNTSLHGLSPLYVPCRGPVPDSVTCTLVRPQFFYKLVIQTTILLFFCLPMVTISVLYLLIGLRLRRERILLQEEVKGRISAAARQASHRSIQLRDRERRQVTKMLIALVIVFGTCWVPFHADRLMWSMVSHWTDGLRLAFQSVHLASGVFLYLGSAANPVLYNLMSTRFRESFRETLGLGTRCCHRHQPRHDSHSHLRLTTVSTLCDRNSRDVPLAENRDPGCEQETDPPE

rat NMUR2 = rat NMUR2 (rat, UniProt Q9ESQ4 1-395); experiment: cell-based or functional assay
rat NMUR2, sequence (Q9ESQ4 whole entry): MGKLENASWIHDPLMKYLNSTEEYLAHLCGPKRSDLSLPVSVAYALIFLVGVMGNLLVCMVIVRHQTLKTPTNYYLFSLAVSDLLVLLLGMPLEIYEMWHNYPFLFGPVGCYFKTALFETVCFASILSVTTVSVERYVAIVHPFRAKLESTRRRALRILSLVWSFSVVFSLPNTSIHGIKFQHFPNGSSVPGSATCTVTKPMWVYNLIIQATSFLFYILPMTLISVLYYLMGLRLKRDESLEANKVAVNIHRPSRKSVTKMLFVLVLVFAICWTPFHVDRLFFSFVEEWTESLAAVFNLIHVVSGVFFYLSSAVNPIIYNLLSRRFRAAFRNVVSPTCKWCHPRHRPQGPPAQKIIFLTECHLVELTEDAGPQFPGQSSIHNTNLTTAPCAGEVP

human NMUR2 [1] = molecular target: T2, human NMUR2 (human, UniProt Q9GZQ4 1-415); experiment: cell-based or functional assay
T2 sequence (Q9GZQ4 whole entry): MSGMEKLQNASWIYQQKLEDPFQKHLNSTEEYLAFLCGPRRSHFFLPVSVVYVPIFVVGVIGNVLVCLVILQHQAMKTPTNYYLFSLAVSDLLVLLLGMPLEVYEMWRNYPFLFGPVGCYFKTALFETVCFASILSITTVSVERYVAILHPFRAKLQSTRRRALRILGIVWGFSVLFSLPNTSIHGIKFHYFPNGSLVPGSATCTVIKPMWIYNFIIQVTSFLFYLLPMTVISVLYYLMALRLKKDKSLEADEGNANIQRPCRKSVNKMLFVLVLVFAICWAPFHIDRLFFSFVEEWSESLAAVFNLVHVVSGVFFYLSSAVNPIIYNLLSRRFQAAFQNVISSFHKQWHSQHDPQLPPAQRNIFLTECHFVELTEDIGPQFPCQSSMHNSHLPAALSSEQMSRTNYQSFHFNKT

human NMUR1 [2] = molecular target: T3, human NMUR1 (human, UniProt Q9HB89 1-426); experiment: cell-based or functional assay
T3 sequence (looked up): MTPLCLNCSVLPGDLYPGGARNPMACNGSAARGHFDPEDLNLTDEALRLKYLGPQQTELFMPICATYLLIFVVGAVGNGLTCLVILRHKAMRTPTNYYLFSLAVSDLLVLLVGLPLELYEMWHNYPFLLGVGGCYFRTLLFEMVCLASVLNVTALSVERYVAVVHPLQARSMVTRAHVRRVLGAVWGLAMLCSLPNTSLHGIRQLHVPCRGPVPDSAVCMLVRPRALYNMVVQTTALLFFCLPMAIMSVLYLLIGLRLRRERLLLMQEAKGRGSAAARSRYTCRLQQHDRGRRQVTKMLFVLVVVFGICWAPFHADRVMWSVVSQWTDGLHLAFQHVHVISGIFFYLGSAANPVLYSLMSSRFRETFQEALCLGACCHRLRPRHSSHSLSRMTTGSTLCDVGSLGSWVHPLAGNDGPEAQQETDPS

human NMUR2 [3] = molecular target: T2, human NMUR2; experiment: cell-based or functional assay; remark: listed apart in the source
human NMUR1 [4] = molecular target: T3, human NMUR1; experiment: cell-based or functional assay; remark: listed apart in the source
mouse NMUR2 = mouse NMUR2 (mouse, UniProt Q8BZ39 1-395); experiment: cell-based or functional assay
mouse NMUR2, sequence (Q8BZ39 whole entry): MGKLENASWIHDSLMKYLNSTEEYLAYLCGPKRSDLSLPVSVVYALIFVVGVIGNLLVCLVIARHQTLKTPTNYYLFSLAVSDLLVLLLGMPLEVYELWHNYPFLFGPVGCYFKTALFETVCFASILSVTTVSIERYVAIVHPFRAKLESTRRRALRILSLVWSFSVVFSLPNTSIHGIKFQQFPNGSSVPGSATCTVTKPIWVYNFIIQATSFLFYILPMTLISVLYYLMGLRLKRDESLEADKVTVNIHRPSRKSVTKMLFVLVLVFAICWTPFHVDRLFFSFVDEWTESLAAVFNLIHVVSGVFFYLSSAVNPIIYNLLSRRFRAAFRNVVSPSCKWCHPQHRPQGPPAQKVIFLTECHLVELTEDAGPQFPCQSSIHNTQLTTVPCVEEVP

mouse NMUR1-CTG = molecular target: T4, mouse NMUR1-CTG (mouse, UniProt O55040 1-428); experiment: cell-based or functional assay
T4 sequence (looked up): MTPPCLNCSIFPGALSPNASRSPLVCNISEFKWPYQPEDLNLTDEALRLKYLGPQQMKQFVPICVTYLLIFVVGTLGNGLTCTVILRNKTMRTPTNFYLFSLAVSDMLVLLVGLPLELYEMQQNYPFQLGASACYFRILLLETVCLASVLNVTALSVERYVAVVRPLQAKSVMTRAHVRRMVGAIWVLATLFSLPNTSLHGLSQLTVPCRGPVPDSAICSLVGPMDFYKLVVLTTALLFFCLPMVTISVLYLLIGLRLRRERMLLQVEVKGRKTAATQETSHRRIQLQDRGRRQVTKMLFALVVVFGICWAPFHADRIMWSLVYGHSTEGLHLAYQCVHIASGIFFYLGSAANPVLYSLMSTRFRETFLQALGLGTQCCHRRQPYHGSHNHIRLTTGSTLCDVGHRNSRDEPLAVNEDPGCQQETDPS

mouse NMUR1-ATG = molecular target: T5, mouse NMUR1-ATG (mouse, UniProt O55040 1-428); experiment: cell-based or functional assay
T5 sequence (looked up): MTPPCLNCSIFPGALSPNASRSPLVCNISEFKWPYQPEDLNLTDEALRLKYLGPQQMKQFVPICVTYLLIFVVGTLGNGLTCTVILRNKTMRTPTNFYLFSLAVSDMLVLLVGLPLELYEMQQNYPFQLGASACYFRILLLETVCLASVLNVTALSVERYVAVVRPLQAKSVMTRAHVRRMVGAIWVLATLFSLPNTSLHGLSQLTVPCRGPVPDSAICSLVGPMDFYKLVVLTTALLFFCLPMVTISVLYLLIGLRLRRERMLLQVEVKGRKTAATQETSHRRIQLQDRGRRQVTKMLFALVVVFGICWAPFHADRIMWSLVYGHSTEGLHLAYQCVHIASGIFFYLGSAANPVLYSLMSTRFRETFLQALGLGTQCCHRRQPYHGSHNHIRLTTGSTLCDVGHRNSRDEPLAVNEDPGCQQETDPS

human NMUR2 [5] = molecular target: T2, human NMUR2; experiment: 125I-hNMU-25 displacement, HEK cell membranes
Procedure: (§1) Confluent cell monolayers expressing NMU receptors (the HEK cells described above) were harvested with phosphate buffered saline, collected by centrifugation, and resuspended in membrane buffer (50 mM TrisCl pH 7.4, 5 mM MgCl₂, 1× Protease Inhibitor Cocktail, 10 μM phosphoramidon). After the cell pellet was homogenized, the solution was centrifuged at 18,000 rpm for 20 minutes at 4° C. The pellet was resuspended in membrane buffer to yield a final concentration of 0.5-5 μg/μL of membrane and stored at −80° C.
(§2) Experiments were performed in assay buffer (25 mM TrisCl, pH 7.4, 10 mM MgCl₂, 2mM EDTA, 1× Protease Inhibitor Cocktail, 100 μg/mL Bacitricin, 10 μM phosphoramidon) in 200 μL volumes in a 96-well format using 2-5 μg of membrane and […] ¹²⁵I-hNMU-25 (about 12,000 cpm/well). For non-specific binding, 1 μM hNMU-25 was added. About 5 μL of peptides were added to measure antagonist activity, and the entire reaction was incubated at room temperature with shaking for 80 minutes. The reaction was terminated by rapid filtration through 0.3% poly-ethylenimine presoaked Millipore 96-well filter plates and washed with ice-cold buffer (5 mM TrisCl pH 7.4, 10 mM MgCl₂, 2.5 mM EDTA, 0.04% Triton X-100). Plates were air-dried overnight at room temperature and recovered radioactivity was determined by standard scintillation counting. IC₅₀ values were determined using GraphPad Prism software.
(§3) Concentration-response curves and radioligand-binding data were fitted using Prism (GraphPad Software). Results are summarized below in Tables 8 and 9.

human NMUR1 [6] = molecular target: T3, human NMUR1; experiment: 125I-hNMU-25 displacement, HEK cell membranes
Procedure: as §1, §2, §3

B1: NMU8 (peptide)
peptide: Ac-C(Succinimide(1-Et,3-yl))FRVDEEFQSPFASQSRGYFLFRPRN-NH2
- % Activity (FLIPR) (rat NMUR1-ATG): 97.2%
- EC50 (FLIPR) (rat NMUR1-ATG): 36.7 nM
- % Activity (FLIPR) (rat NMUR2): 94.7%
- EC50 (FLIPR) (rat NMUR2): 45.1 nM
- % Activity (FLIPR) (human NMUR2 [1]): 100%
- EC50 (FLIPR) (human NMUR2 [1]): 5.2 nM
- % Activity (FLIPR) (human NMUR1 [2]): 99.1%
- EC50 (FLIPR) (human NMUR1 [2]): 10.7 nM
- % activity (human NMUR2 [3]): 104%
- EC50 (human NMUR2 [3]): 2.9 nM
- % activity (human NMUR1 [4]): 100%
- EC50 (human NMUR1 [4]): 1.36 nM
- % Activity (FLIPR) (mouse NMUR2): 100%
- EC50 (FLIPR) (mouse NMUR2): 1.8 nM
- % Activity (FLIPR) (mouse NMUR1-CTG): 100%
- EC50 (FLIPR) (mouse NMUR1-CTG): 15.5 nM
- % Activity (FLIPR) (mouse NMUR1-ATG): 100%
- EC50 (FLIPR) (mouse NMUR1-ATG): 6.4 nM
- % activity (binding) (human NMUR2 [5]): 100%
- IC50 (human NMUR2 [5]): 0.3 nM
- % activity (binding) (human NMUR1 [6]): 100%
- IC50 (human NMUR1 [6]): 2.4 nM
